# Laboratory results taken from the DeepSol protein solubility set.
# Test: soluble on expression in E. coli; label from the status in PepcDB or PDB records
row,Sequence,soluble on expression in E. coli
1,MNQGEIVYQDDDDYYDESEIYDNYEEGAEFIEVNGQLVPHNPAQQNRPGTSSMIQQHNRSMEVNQGLVKDEPIDTSSHRVYVPPPRPVQRKPGPSTPGSSQYTVRNLSNLSGSPSMYDRQPASLPRTVQPMGLEMGNSEQRKVYIDMKDHVSHIRLKTKKKVFAPGQRKPCNCTKSQCLKLYCDCFANGEFCRDCNCKDCHNNIEYDSQRSKAIRQSLERNPNAFKPKIGIARGGITDIERLHQKGCHCKKSGCLKNYCECYEAKVPCTDRCKCKGCQNTETYRMTRYKNSGGAVSNTNALMSLTNASSTATPDSGPGSVVTDEHGDDYEDMLLSHKPKVEMDPRRFPWYYMTDEVVEAATMCMVAQAEEALNYEKVQTEDEKLINMEKLVLREFGRCLEQMITNTTELTQDLDAAPTDDIPGPSTSTS,not soluble
2,MNQIIENAFVKVEVSPHGAELQSIFNKQFHLEYLWQGDPAVWPRKAPVLFPIVGKVKDNQYTISGKTYSLSQHGFARDNAFTLVSATDTTLVYRLTHSEDSFKNFPYEFELDISYSIEHSILKVAYKIHNSSGTSDLYYSIGAHPGFRCPLVEGETFEDYYLEFEKAEKLNRVLLDGGLRGDQTEPVPLTNNKLPLSVNLFGSKDAIVVSGLHSERISLKSNKSVHGLHFDYKNYPWFGIWSKPGPFVCLEPWMGVADDIHAAGDFIKKESIQFLQPKAEALFTYSIELFLEHHHHHH,not soluble
3,MNQKDTRKETLEFNKLQKRLRRNVGNAITDYNMIEEGDVVMACISGGKDSFAMLDILLNLQKAAPIKFEVVAVNLDQKQPGFPEHILPEYFETLNIPYYIVDKDTYSVVKEKVPEGKTTCGLCSRLRRGTLYSFAEKIGATKLALGHHMDDIVETMFLNMFHGSRLKAMPPKLRSDDGRNVVIRPLTYCREKDLIKYAEHKDFPIIPCNLCGSQENLQRQAIKAMLIDWDKKTPGRVEAIFKSIQNVSPSQLADRELFDFVNLPLDRDGSREEYEFSEAVVSSTNIDESLFIDVTNI,soluble
4,MNQQDIEQVVKAVLLKMKDSSQPASTVHEMGVFASLDDAVAAAKRAQQGLKSVAMRQLAIHAIREAGEKHARELAELAVSETGMGRVDDKFAKNVAQARGTPGVECLSPQVLTGDNGLTLIENAPWGVVASVTPSTNPAATVINNAISLIAAGNSVVFAPHPAAKKVSQRAITLLNQAVVAAGGPENLLVTVANPDIETAQRLFKYPGIGLLVVTGGEAVVDAARKHTNKRLIAAGAGNPPVVVDETADLPRAAQSIVKGASFDNNIICADEKVLIVVDSVADELMRLMEGQHAVKLTAAQAEQLQPVLLKNIDERGKGTVSRDWVGRDAGKIAAAIGLNVPDQTRLLFVETPANHPFAVTEMMMPVLPVVRVANVEEAIALAVQLEGGCHHTAAMHSRNIDNMNQMANAIDTSIFVKNGPCIAGLGLGGEGWTTMTITTPTGEGVTSARTFVRLRRCVLVDAFRIV,not soluble
5,MNREGAPGKSPEEMYIQQKVRVLLMLRKMGSNLTASEEEFLRTYAGVVNSQLSQLPPHSIDQGAEDVVMAFSRSETEDRRQ,soluble
6,MNRHPALSLDLDDGIDRKVLGQLRQRFLAVNAGRLQRARQALSSRQERVLRLLPLLFHINHPLLPGYLSASTPAGLSGFEADDEVLAEAQRLARSFVYKPRRQEPAQQPIHGLFLMGSLGSLAQEEQSDLDLWVCHAPELEPGARQELRRKCALIEDWARSQGSEVHCFLIDVARFGQDEREDRKEPGGDGNTQHFLLLDEFYRSAIWLGGRTPLWWLVPPAHERRYDEYCRTLLGKRFIRAEEVLDLGHLAHIPAREFIGAGLWQLSKAIDSPYKSLLKLLLTEAYASEHPRVRCVALRFKEQVFAGQLDLDELDPYVLVYRHLERYLREQQAPERLELVRRCLYLKVGRKLGGRQRQAQKGWQHLSMERLVAEWQWEPRRLALLDSRSQWKMRQVMEERRTVVNELTYSYRLLFQIARQQGADSGIDSRDLGLLGRRLYAAFERKAGKVENINPGIAPDLGEDVLTLVQLPADDGREQAQWAIFPGALGAHQWPDYAPLKRSLRLVELLAWCHRNGVIDSATRLSLHPGQSDLGDAELDNLLGSLRQFLPVPLATVDDADLLQPRRLKSVLLLVNVGVDPLRHHSQMNLHMATGRTDVLGYAGVRDNLVLTLDQLSLNSWNELTVRHYAGPQALPECLAEFLDAVREKPGSPPQPPELMVRCFCRNRAAAIAVRVEELFRETYGQLLGGQPSRYLLQIRQQYHLLEMSPEAVSHESLPDLPSLLQHLGRERDGYSALKLDRHALEGEDLGLILSMGRPDCIQVFYRRDFDSAEISLLDERNALWRQRQALRDERSLLAPLQRFLQSLLYRRNALSLAEQVPAALDIRYYELLSNDGRVHVEPREAPEALAGPALYELQALLERGERKRVQVTLYCDHQEFSELEYGAGLFKAVARHILAHRAESEPYPCYLTDLDLSRLFADEQPQTLHYLRYKSVLETALNQALLE,not soluble
7,MNRHSTTSGNLNTVFGYVDEETVSQGISASYVGSGKLVGNRLVRHTQTSLFSSANTW,not soluble
8,MNRILIVEDEKNLARFIELELQHENYETAVANDGRAGLELALNEEWDAILLDLMLPHLNGVEVCRRVRQVKQTPIIMITARDSVIDRVSGLDHGADDYIVKPFAIEELLARLRSLLRRVENAEQSAKQTTLQYRNLIVEKENRIVKRDEEIIDLTKREYELLLTLMENVNIVLTREVLLNKVWGYETEVETNVVDVYVRYLRNKIDHPDEESYIQTVRGTGYVMRT,not soluble
9,MNRKIERMIIELEKECKAQNVELLLCATNFETGQGSTAFCGSVIGLAILLQKLVGDLKEQLSISESCDCPECVAEKAEDAANEKSMDELLTAFLRGELQ,not soluble
10,MNRKTGTTTVGIKVKDGVILAADTQASLDHMVETLNIRKIIPITDRIAITTAGSVGDVQMIARILEAEARYYYFAWGRPMTTKAMANLLSNILNENKWFPYLVQIIIGGYVDEPTIANLDPYGGLIFDNYTATGSGTPFAIAILEEGYKENLGIEEAKELAIKAIKAAGSRDVYTGSKKVQVVTITKEGMQEEFIKL,soluble
11,MNRLKSDQKTKLRQFVQWTQVTEAVSLNFLAKANWNIEYAMTLYFDNPNLFAGSTPQPSVDRSNIERLFNQYVDPKDKVGEKRMGPHGINRLLTDLGYEATDRRVLVLAWKFTAQTQCEFSLDEWVKGMTALQADTVQNLRQRIDSINSGLESDKAKFHELYLFAFNYAKSAACRNLDLETAICCWDVLFGQRSTIMTQWIDFLWAQENAAASRLAQNVGASNAKQFKSVWISRDTWNLFWDFILLSKPDLSDYDDEGAWPVLIDQFVDYCRENLNYPKPGNASNDQQMETPSYY,not soluble
12,MNRNRRDGPQRDVKRERRSRSRSPRRSRIGAAVGSNNGNSSSNNRMVFITNIAYEARWVDLKSLVREKGGEVAFCELLEDRNGKPKGNAVVEFETREGAEKCVENLQKFDWKGRTIIAKEIRDPNAFFRTIKTETGIDYLSRTGGGGAGGRGPPPKDLDRPTRTGTYDLFGLNMEFLRQHNIEPPLCERIFIANLAFNVGTDKLYEVFGMAGKITWMDFRIDKEGKSKGVCVIQYTHPIEAVQAVSMLNGQRLFDRNLVVKMDRFDKELEHKEGGLPRGLESIGMGLGAEGAPLSNVHGMFPGDASVPFTAPAAPFVGGPQVVSAGGFGGVVEQANFARSVMNNGPFGGNAGVGGAGGATFAQPDVFGVNGAGGLAGAATPQATRVIIIRNLPSDYTWQIVRDRVRNFGEVDSVDMMAPGAARIRFATFQDAERARAALYGSTVEGRMISVDYA,soluble
13,MNRRMMLASAALLLAPLAAQAQTRDVSVTIYNSNLALVEDARPLDLKAGRQKLEFKDVSAAIRPETVSLSAPGVTILEQNFDYDLLTPDKLMEKAVGQKVKIVRTNPGDGKETTEVATVLAANQGVVLKIGDRIEVLRDDGVPTRVIFDKVPETLRARPTLSVSVEAAGAGTRQAKLSYLTSGLSWKADYVALFDEAKSTMDLQGWITLSNNSGTPFENARTQLVAGDVNQLNDGGYRSSRSPGMISAGTESGVGERVADYYVYPLPERTTIASNQNKQVGFLSAQGVTAKKVYEVREGWFTSQAEPTKAVVAIQFSNARLAGLGAQLPMGTMRVYMRDAAGDPKFVGENAIGHTPAGSELSIKTGEAFDVSGQATLVAESRVSKRLTRYEMKYLLRNAKDQPVTVELRQGGLGRDSTVKAESLKGRRIDAGTLGWSVPVPANGETVLTFTVETGWLEHHHHHH,soluble
14,MNRRVVIVTAVHGPSAPFLPEAYASLCAQELPDGWEWRWVIQEDGRTQDVRPHVPDDPRVVFHQGRHGRQGGPGVARTMALAHADGAYVKVLDADDRLTPGALARDLAALEADPSIGWATSRVLDLLPDGSTAGFPGDPAHGPIERGEVLDFWRANGFRAQVHPATLLVRRDLLLAVGGWMALPASEDTGLLLALNCVSRGWFTEDVGLLYRKWEGQETGQASHVDPAERDARMTVVEARARALASFGWRLPEGTGDFDHLEHHHHHH,not soluble
15,MNRTALVLGCLLVATPALAQSVTEKTGVNSVLGIAPTTPDFVKQVAISDMFEIQSNQLAERKGNAAQQAFAKQMIADHTKTSSELKAMVSDGKVKAELPTALDSAHQSKLDKLKNANGAEFSETFDEQQVSAHKDAVSLFERYAKGGDNDALKKWAGTTLPKLQHHLEMAQQLERDRTNTTSESKAKK,not soluble
16,MNSDVIKGKWKQLTGKIKERWGDLTDDDLQAADGHAEYLVGKLQERYGWSKERAEQEVRDFSDRL,soluble
17,MNSEHPMTDRVVYRSLMADNLRWDALQLRDGDIIISAPSKSGLTWTQRLVSLLVFDGPDLPGPLSTVSPWLDQTIRPIEEVVATLDAQQHRRFIKTHTPLDGLVLDDRVSYICVGRDPRDAAVSMLYQSANMNEDRMRILHEAVVPFHERIAPPFAELGHARSPTEEFRDWMEGPNQPPPGIGFTHLKGIGTLANILHQLGTVWVRRHLPNVALFHYADYQADLAGELLRPARVLGIAATRDRARDLAQYATLDAMRSRASEIAPNTTDGIWHSDERFFRRGGSGDWQQFFTEAEHLRYYHRINQLAPPDLLAWAHEGRRGYDPAN,soluble
18,MNSENSFSSSEHITVLLHEAVNGLALKENGIYIDGTFGRGGHSRFILSQLSSNGRLIAVDRDPRAIAEAHKIQDLRFQIEHNSFSHIPEICDKLNLVGKIDGILLDLGVSSPQLDEAERGFSFMKDGPLDMRMDTTQGLSAEEWLKQVSIEDLTWVLKTFGEERFAKRIATAIVDFNKSAVKNGTEFLSRTSQLAELISQAVPFKDKHKHPATRSFQAIRIFINSELDELESLLNSALDMLAPEGRLSIISFHSLEDRMVKHFMKKQSKGEDIPKGLPLREDQIQRNQKLRIIGKAIQPSDAEIQANPRSRSAILRVAERI,not soluble
19,MNSEQQQTVFLCVSYLLSYPDEQWAESLPDCLDAIRSLDDETVRAPLLAFAEQINSIPARQRMEQYVETFDFGKKTNLYLTYMTNGEQRERGIELVALKARYQAAGFAVSDHELPDYLPLMLEWMAYADQEHTTALLADYAGHIREIGDRLAAAGSPYAQLFDALNHTFTQLGVTPLPKGGATAWPANFSG,not soluble
20,MNSFIEGAHQPLLSVWRRAFLFSGALLLTACSHNASPPPFTASGFAGDHGAVRIWRKDTNDEVHLLSVFSPWHSGSTTTSEYRWQGDTLSLIELNIYSKPPEHIRARFDAHGELSFMQREVGGQKQQLSNDQIALYRYRAEQIRQTSDALRLGRVILRQGRWHADHTVTTCEGETLKPDLDSWAISHIERRQNHSSVEVSVAWLEAPEGSQLLLVANSDFCHWQPQAKSF,not soluble
21,MNSFRWDIYFETGIEDVDDQHQYLVEFINKYGKLLTRNTISIADIQSALFELSRYAEFYFKEEENLMREVGIHHEHLQKHIQVHRTFMGDIVSMQSFINEDNRQSAEQLLDFLIHWLAYHILGIDQNMAKQIKAIERGVSPLEAYREQEQQANASTEP,soluble
